Among the data in PMC3565030 are Kd values, retold here.

The experiment deals with T1, Eco1 phosphopeptide “94-98-99” (phosphates at Thr94, Ser98 and Ser99), FITC-conjugated (budding yeast).
T1 chain: GTITPLNSSPLKK
Nature of the experiment: fluorescence polarisation. (In general: Fluorescence polarisation rises when a labelled molecule tumbles more slowly, as on binding a larger partner.)

B1: Cdc4–Skp1 complex (His6-Cdc4-LP6DelA GST-Skp1), P07834 1-779; P52286 1-194 (complex)
chain 1: GTLIKDNLKRDLITSLPFEISLKIFNYLQFEDIINSLGVSQNWNKIIRKSTSLWKKLLISENFVSPKGFNSLNLKLSQKYPKLSQQDRLRLSFLENIFILKNWYNPKFVPQRTTLRGHMTSVITCLQFEDNYVITGADDKMIRVYDSINKKFLLQLSGHDGGVWALKYAHGGILVSGSTDRTVRVWDIKKGCCTHVFEGHNSTVRCLDIVEYKNIKYIVTGSRDNTLHVWKLPKESSVPDHGEEHDYPLVFHTPEENPYFVGVLRGHMASVRTVSGHGNIVVSGSYDNTLIVWDVAQMKCLYILSGHTDRIYSTIYDHERKRCISASMDTTIRIWDLENGELMYTLQGHTALVGLLRLSDKFLVSAAADGSIRGWDANDYSRKFSYHHTNLSAITTFYVSDNILVSGSENQFNIYNLRSGKLVHANILKDADQIWSVNFKGKTLVAAVEKDGQSFLEILDFS
chain 2: MVTSNVVLVSGEGERFTVDKKIAERSLLLKNYLNDMGDDDDEDDDEIVMPVPNVRSSVLQKVIEWAEHHRDSNFPDEDDDDSRKSAPVDSWDREFLKVDQEMLYEIILAANYLNIKPLLDAGCKVVAEMIRGRSPEEIRRTFNIVNDFTPEEEAAIRRENEWAEDR
modifications: not checked
For B1, the equilibrium dissociation constant (Kd) was 10.3 µM.

Broadly, the Kd is a measure of binding affinity in units of concentration.
